According to the RNAGym collection of RNA variant scans (doi:10.1093/nar/gkz1192):

B1: CPEB3 Ribozyme (parent)
chain: UAACAGGGGGCCACAGCAGAAGCGUUCACGUCGCAGCCCCUGUCAGAUUCUGGUGAAUCUGCGAAUUCUGCUGUAUAUCUC

Variants of: B1
Experiment: self-cleavage, relative activity (ratio to wild type); higher = more cleavage; in vitro, sequencing
How it was run: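 For each CPEB3 ribozyme variant, relative activity is its cleaved/total read fraction divided by the unmutated ribozyme's. Barcoded error-prone PCR libraries were transcribed by T7 RNA polymerase (5 hours, 37°C) and held in DNase I for 15 min before an EDTA stop, with cleavage occurring throughout. Template-switching reverse transcription and Illumina sequencing were used to read the RNAs. A 5-read minimum applied, and results are the mean of three batches.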

Going from UAACAGGGGGCCACAGCAGAAGCGUUCACGUCGCAGCCCCUGUCAGAUUCUGGUGAAUCAGCGAAUUGUGCUGUAUAUCUC [U60A C68G] to UAACAGGGGGCCACAGCAGAAGCGUUCACGUCGCAGCCCCUGUCAGAUUCUGGUGAAUCAGCGAAUUCUGCUGUAUUUCUC [U60A A77U], the self-cleavage rises from 0.43 to 0.52.

Going from UAACAGGGGGCCACAGCAGAAGCGUUCACGUCGCAGCCCCUGUCAGAUUCUGGUGAAUCAGCGAAUUCUGCUGUAUGUCUC [U60A A77G] to UAACAGGGGGCCACAGCAGAAGCGUUCACGUCGCAGCCCCUGUCAGAUUCUGGUGAAUGCGCGAAUUCUGCUGUAUAUCUC [C59G U60C], the self-cleavage falls from 0.56 to 0.16.

Compared with UAACAGGGGGCCACAGCAGAAGCGUUCACGUCGCAGCCCCUGUCAGAUUCUGGUGAAUAUGCGAAUUCUGCUGUAUGUCUC [C59A A77G], UAACAGGGGGCCACAGCAGAAGCGUUCACGUCGCAGCCCCUGUCAGAUUCUGGUGAAUUUGCGAAUUCUGCUAUAUAUCUC [C59U G73A] is higher in self-cleavage: 0.31 for the first, 1.45 for the second.

First: UAACAGGGGGCCACAGCAGAAGCGUUCACGUCGCAGCCCCUGUCAGAUUCUGGUGAAUUUGCGAAUUCUGCUGUAUAACUC [C59U U78A]
Second: UAACAGGGGGCCACAGCAGAAGCGUUCACGUCGCAGCCCCUGUCAGAUUCUGGUGAAUUUGCGAAUUCUGCUGUAUACCUC [C59U U78C]
The self-cleavage of the first is higher: 1.17 for the first, 0.94 for the second.

Compared with UAACAGGGGGCCACAGCAGAAGCGUUCACGUCGCAGCCCCUGUCAGAUUCUGGUGAAUUUGCGAAUUCUGCUGAAUAUCUC [C59U U74A], UAACAGGGGGCCACAGCAGAAGCGUUCACGUCGCAGCCCCUGUCAGAUUCUGGUGAAUUUGCGAAUUCUGCUGCAUAUCUC [C59U U74C] is lower in self-cleavage: 1.6 for the first, 1.1 for the second.

Going from UAACAGGGGGCCACAGCAGAAGCGUUCACGUCGCAGCCCCUGUCAGAUUCUGGUGAAUUUGCGAAUUCUGCUGUACAUCUC [C59U U76C] to UAACAGGGGGCCACAGCAGAAGCGUUCACGUCGCAGCCCCUGUCAGAUUCUGGUGAAUACGCGAAUUCUGCUGUAUAUCUC [C59A U60C], the self-cleavage falls from 0.97 to 0.19.

First: UAACAGGGGGCCACAGCAGAAGCGUUCACGUCGCAGCCCCUGUCAGAUUCUGGUGAAUAAGCGAAUUCUGCUGUAUAUCUC [C59A U60A]
Second: UAACAGGGGGCCACAGCAGAAGCGUUCACGUCGCAGCCCCUGUCAGAUUCUGGUGAAUGUGCGAAUUCUGCUGUAUACCUC [C59G U78C]
The self-cleavage of the first is higher: 0.31 for the first, 0.27 for the second.

First: UAACAGGGGGCCACAGCAGAAGCGUUCACGUCGCAGCCCCUGUCAGAUUCUGGUGAAUUUGUGAAUUCUGCUGUAUAUCUC [C59U C62U]
Second: UAACAGGGGGCCACAGCAGAAGCGUUCACGUCGCAGCCCCUGUCAGAUUCUGGUGAAUAUGCGAAUUCUGCUUUAUAUCUC [C59A G73U]
The self-cleavage of the first is lower: 0.16 for the first, 1.11 for the second.

First: UAACAGGGGGCCACAGCAGAAGCGUUCACGUCGCAGCCCCUGUCAGAUUCUGGUGAAUUUGCGAGUUCUGCUGUAUAUCUC [C59U A65G]
Second: UAACAGGGGGCCACAGCAGAAGCGUUCACGUCGCAGCCCCUGUCAGAUUCUGGUGAAUGUGCGAAUUCUGAUGUAUAUCUC [C59G C71A]
The self-cleavage of the first is higher: 0.4 for the first, 0.24 for the second.

Compared with UAACAGGGGGCCACAGCAGAAGCGUUCACGUCGCAGCCCCUGUCAGAUUCUGGUGAAUUUGCGAAUUCUGCAGUAUAUCUC [C59U U72A], UAACAGGGGGCCACAGCAGAAGCGUUCACGUCGCAGCCCCUGUCAGAUUCUGGUGAAUUUGCGAAUUCUGCCGUAUAUCUC [C59U U72C] is higher in self-cleavage: 0.4 for the first, 1.14 for the second.

First: UAACAGGGGGCCACAGCAGAAGCGUUCACGUCGCAGCCCCUGUCAGAUUCUGGUGAAUAUGCGAAUUCUGCAGUAUAUCUC [C59A U72A]
Second: UAACAGGGGGCCACAGCAGAAGCGUUCACGUCGCAGCCCCUGUCAGAUUCUGGUGAAUAUGCGAAUUCUGCCGUAUAUCUC [C59A U72C]
The self-cleavage of the first is lower: 0.13 for the first, 0.34 for the second.

Compared with UAACAGGGGGCCACAGCAGAAGCGUUCACGUCGCAGCCCCUGUCAGAUUCUGGUGAAUGUGCGAAUUCUGCUGAAUAUCUC [C59G U74A], UAACAGGGGGCCACAGCAGAAGCGUUCACGUCGCAGCCCCUGUCAGAUUCUGGUGAAUUUGCGAAUUCCGCUGUAUAUCUC [C59U U69C] is higher in self-cleavage: 0.37 for the first, 0.48 for the second.

Compared with UAACAGGGGGCCACAGCAGAAGCGUUCACGUCGCAGCCCCUGUCAGAUUCUGGUGAAUUUGCGAAUUCAGCUGUAUAUCUC [C59U U69A], UAACAGGGGGCCACAGCAGAAGCGUUCACGUCGCAGCCCCUGUCAGAUUCUGGUGAAUAUGCGAAUUCUUCUGUAUAUCUC [C59A G70U] is lower in self-cleavage: 0.41 for the first, 0.13 for the second.

First: UAACAGGGGGCCACAGCAGAAGCGUUCACGUCGCAGCCCCUGUCAGAUUCUGGUGAAUUUGCGAAUUCUGCUGUGUAUCUC [C59U A75G]
Second: UAACAGGGGGCCACAGCAGAAGCGUUCACGUCGCAGCCCCUGUCAGAUUCUGGUGAAUUUGCGAAUUCUGCUGUAUAUCUC [C59U]
The self-cleavage of the first is lower: 0.81 for the first, 0.95 for the second.

Compared with UAACAGGGGGCCACAGCAGAAGCGUUCACGUCGCAGCCCCUGUCAGAUUCUGGUGAAUGUGCGAAUUCUGCUGUAUAUCUC [C59G], UAACAGGGGGCCACAGCAGAAGCGUUCACGUCGCAGCCCCUGUCAGAUUCUGGUGAAUCAGCGUAUUCUGCUGUAUAUCUC [U60A A64U] is higher in self-cleavage: 0.32 for the first, 0.33 for the second.

Compared with UAACAGGGGGCCACAGCAGAAGCGUUCACGUCGCAGCCCCUGUCAGAUUCUGGUGAAUCAGCGGAUUCUGCUGUAUAUCUC [U60A A64G], UAACAGGGGGCCACAGCAGAAGCGUUCACGUCGCAGCCCCUGUCAGAUUCUGGUGAAUCAGCGCAUUCUGCUGUAUAUCUC [U60A A64C] is lower in self-cleavage: 0.43 for the first, 0.13 for the second.

Compared with UAACAGGGGGCCACAGCAGAAGCGUUCACGUCGCAGCCCCUGUCAGAUUCUGGUGAAUAUGCGAAUUCUGCUGUUUAUCUC [C59A A75U], UAACAGGGGGCCACAGCAGAAGCGUUCACGUCGCAGCCCCUGUCAGAUUCUGGUGAAUAUGCGAAUUCUGCUGUGUAUCUC [C59A A75G] is higher in self-cleavage: 0.13 for the first, 0.16 for the second.
